Paper PMC9482650, “Quantitative fragmentomics allow affinity mapping of interactomes” (Nature Communications, 2022)

Columns and labels:
Test in all cases: holdup assay
Parameters in all cases: key: below the threshold = too weak to quantify, mostly under pKd 3.1 to 4
HTRA4, P83105 = molecular target: T1, HTRA4, P83105
T1 sequence (P83105 378-476, limits assumed, looked up): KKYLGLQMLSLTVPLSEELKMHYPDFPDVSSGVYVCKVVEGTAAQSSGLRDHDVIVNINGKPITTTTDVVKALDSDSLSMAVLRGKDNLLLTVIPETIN

LNX1_3, Q8TBB1 = molecular target: LNX1_3, Q8TBB1
Chain of LNX1_3, Q8TBB1 (Q8TBB1 500-596): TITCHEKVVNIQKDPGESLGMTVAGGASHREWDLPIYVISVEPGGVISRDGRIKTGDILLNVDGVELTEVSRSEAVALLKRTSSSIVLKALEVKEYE

PDZRN3_1, Q9UPQ7 = molecular target: T2, PDZRN3_1, Q9UPQ7
T2 sequence (Q9UPQ7 244-349, limits assumed, looked up): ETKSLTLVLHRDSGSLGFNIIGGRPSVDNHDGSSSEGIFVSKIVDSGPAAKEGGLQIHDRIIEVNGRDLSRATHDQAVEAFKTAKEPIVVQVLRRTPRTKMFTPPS

HTRA1, Q92743 = molecular target: HTRA1, Q92743
Chain of HTRA1, Q92743 (Q92743 360-477): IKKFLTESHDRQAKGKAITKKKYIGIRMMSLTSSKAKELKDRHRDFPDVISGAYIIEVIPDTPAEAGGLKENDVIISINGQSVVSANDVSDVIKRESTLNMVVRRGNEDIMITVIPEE

RADIL, Q96JH8 = molecular target: T3, RADIL, Q96JH8
T3 sequence (Q96JH8 971-1071, limits assumed, looked up): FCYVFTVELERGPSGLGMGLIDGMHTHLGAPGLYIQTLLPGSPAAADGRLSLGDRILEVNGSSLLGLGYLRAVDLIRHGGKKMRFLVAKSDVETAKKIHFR

MPDZ_12, O75970 = molecular target: T4, MPDZ_12, O75970
T4 sequence (O75970 1857-1958, limits assumed, looked up): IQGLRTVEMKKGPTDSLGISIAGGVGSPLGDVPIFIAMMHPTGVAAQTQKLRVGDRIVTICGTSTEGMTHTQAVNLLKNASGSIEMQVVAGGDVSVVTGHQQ

SNTG1, Q9NSN8 = molecular target: T5, SNTG1, Q9NSN8
T5 sequence (Q9NSN8 52-150, limits assumed, looked up): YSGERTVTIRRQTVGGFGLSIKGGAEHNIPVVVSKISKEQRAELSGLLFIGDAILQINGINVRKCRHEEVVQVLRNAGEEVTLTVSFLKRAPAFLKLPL

IL16_3, Q14005 = molecular target: IL16_3, Q14005
Chain of IL16_3, Q14005 (Q14005 1107-1207): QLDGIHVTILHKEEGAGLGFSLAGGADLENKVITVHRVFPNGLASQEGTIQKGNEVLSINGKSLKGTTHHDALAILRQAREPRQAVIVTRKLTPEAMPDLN

LIMK2, P53671 = molecular target: LIMK2, P53671
Chain of LIMK2, P53671 (P53671 143-248): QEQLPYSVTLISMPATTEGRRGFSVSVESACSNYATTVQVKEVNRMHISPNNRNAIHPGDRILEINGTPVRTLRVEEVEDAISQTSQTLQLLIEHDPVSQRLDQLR

FRMPD2_2, Q68DX3 = molecular target: FRMPD2_2, Q68DX3
Chain of FRMPD2_2, Q68DX3 (Q68DX3 944-1038): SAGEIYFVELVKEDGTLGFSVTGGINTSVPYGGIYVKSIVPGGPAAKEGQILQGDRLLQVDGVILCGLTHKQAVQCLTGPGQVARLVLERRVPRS

PARD3_3, Q8TEW0 = molecular target: PARD3_3, Q8TEW0
Chain of PARD3_3, Q8TEW0 (Q8TEW0 582-685): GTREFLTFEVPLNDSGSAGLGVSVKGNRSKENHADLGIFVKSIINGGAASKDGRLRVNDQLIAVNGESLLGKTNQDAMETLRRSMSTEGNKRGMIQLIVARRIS

PCLO, Q9Y6V0 = molecular target: T6, PCLO, Q9Y6V0
T6 sequence (Q9Y6V0 4491-4600, limits assumed, looked up): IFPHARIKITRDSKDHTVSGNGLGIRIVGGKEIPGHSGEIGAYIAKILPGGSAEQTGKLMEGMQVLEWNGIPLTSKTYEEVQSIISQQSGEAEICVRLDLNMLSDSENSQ

GORASP1, Q9BQQ3 = molecular target: GORASP1, Q9BQQ3
Chain of GORASP1, Q9BQQ3 (Q9BQQ3 1-208): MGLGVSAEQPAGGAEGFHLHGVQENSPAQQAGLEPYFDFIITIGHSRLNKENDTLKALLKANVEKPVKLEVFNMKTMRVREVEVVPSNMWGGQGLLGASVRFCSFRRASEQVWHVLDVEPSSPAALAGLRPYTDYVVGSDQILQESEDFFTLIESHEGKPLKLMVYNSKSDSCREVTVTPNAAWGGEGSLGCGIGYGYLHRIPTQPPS

FRMPD4, Q14CM0 = molecular target: FRMPD4, Q14CM0
Chain of FRMPD4, Q14CM0 (Q14CM0 67-160): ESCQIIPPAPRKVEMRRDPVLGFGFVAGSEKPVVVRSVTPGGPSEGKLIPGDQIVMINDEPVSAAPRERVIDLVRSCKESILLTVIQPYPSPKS

FRMPD2_1, Q68DX3 = molecular target: FRMPD2_1, Q68DX3
Chain of FRMPD2_1, Q68DX3 (Q68DX3 770-861): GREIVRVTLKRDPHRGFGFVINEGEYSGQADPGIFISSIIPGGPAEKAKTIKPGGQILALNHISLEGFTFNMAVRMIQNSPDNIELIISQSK

NHERF4_1, Q86UT5-2 = molecular target: NHERF4_1, Q86UT5-2
Chain of NHERF4_1, Q86UT5-2 (Q86UT5 other isoform, or with tags, fused parts or gaps): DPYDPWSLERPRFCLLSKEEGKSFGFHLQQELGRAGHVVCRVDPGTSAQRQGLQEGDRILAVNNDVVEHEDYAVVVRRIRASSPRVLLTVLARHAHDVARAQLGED

DLG5_1, Q8TDM6 = molecular target: DLG5_1, Q8TDM6
Chain of DLG5_1, Q8TDM6 (Q8TDM6 617-713): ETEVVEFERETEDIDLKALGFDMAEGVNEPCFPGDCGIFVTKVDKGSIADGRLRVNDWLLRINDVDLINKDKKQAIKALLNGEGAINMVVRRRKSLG

GRASP, Q7Z6J2 = molecular target: GRASP, Q7Z6J2
Chain of GRASP, Q7Z6J2 (Q7Z6J2 96-193): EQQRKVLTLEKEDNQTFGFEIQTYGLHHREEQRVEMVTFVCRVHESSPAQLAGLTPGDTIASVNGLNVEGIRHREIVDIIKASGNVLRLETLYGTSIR

GRIP1_7, Q9Y3R0 = molecular target: T7, GRIP1_7, Q9Y3R0
T7 sequence (Q9Y3R0 999-1096, limits assumed, looked up): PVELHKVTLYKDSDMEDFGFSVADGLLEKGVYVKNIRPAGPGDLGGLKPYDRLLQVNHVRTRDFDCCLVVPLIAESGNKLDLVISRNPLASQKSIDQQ

LNX2_2, Q8N448 = molecular target: T8, LNX2_2, Q8N448
T8 sequence (Q8N448 334-432, limits assumed, looked up): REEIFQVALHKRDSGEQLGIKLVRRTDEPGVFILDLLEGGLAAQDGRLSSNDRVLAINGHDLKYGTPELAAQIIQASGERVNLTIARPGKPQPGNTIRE

SNTB1, Q13884 = molecular target: T9, SNTB1, Q13884
T9 sequence (Q13884 107-205, limits assumed, looked up): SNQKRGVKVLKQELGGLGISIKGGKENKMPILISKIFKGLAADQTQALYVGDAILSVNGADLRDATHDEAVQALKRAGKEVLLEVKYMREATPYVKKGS

HTRA3, P83110 = molecular target: T10, HTRA3, P83110
T10 sequence (P83110 354-453, limits assumed, looked up): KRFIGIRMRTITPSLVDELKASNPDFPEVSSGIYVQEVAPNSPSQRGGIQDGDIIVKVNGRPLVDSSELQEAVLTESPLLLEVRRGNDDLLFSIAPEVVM

Inadl_5, Q8NI35 = molecular target: Inadl_5, Q8NI35
Chain of Inadl_5, Q8NI35 (Q8NI35 673-780): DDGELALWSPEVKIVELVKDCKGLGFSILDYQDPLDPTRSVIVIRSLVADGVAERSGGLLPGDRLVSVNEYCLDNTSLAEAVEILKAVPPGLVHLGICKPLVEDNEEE

Inadl_3, Q8NI35 = molecular target: Inadl_3, Q8NI35
Chain of Inadl_3, Q8NI35 (Q8NI35 359-469): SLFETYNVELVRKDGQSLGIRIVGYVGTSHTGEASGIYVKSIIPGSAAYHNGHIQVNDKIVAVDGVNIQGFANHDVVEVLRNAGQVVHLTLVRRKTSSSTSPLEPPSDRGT

MPP6, Q9NZW5 = molecular target: T11, MPP6, Q9NZW5
T11 sequence (Q9NZW5 125-219, limits assumed, looked up): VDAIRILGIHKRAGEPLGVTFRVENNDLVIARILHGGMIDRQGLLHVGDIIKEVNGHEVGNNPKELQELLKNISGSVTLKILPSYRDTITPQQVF

IL16_4, Q14005 = molecular target: IL16_4, Q14005
Chain of IL16_4, Q14005 (Q14005 1229-1329): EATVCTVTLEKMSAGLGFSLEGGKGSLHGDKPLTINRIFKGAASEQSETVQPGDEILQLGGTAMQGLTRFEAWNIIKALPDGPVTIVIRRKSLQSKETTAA

[1] = plain residues with an end cap or a label only (N-terminal biotin on a linker: ado-ado)
[2] = plain residues with an end cap or a label only (N-terminal biotin on a linker: ahx)

Binder: ELKAEDEVQI [DCHS2, Q6V1P9]
- pKd (HTRA4, P83105; [1]): below the threshold
- pKd (LNX1_3, Q8TBB1; [1]): below the threshold
- pKd (PDZRN3_1, Q9UPQ7; [1]): below the threshold
- pKd (HTRA1, Q92743; [1]): 4.25
- pKd (RADIL, Q96JH8; [1]): below the threshold
- pKd (MPDZ_12, O75970; [1]): below the threshold
- pKd (SNTG1, Q9NSN8; [1]): below the threshold
- pKd (IL16_3, Q14005; [1]): below the threshold
- pKd (LIMK2, P53671; [1]): below the threshold
- pKd (FRMPD2_2, Q68DX3; [1]): below the threshold
- pKd (PARD3_3, Q8TEW0; [1]): 4.74
- pKd (PCLO, Q9Y6V0; [1]): below the threshold
- pKd (GORASP1, Q9BQQ3; [1]): below the threshold
- pKd (FRMPD4, Q14CM0; [1]): below the threshold
- pKd (FRMPD2_1, Q68DX3; [1]): below the threshold
- pKd (NHERF4_1, Q86UT5-2; [1]): below the threshold
- pKd (DLG5_1, Q8TDM6; [1]): below the threshold
- pKd (GRASP, Q7Z6J2; [1]): below the threshold
- pKd (GRIP1_7, Q9Y3R0; [1]): below the threshold
- pKd (LNX2_2, Q8N448; [1]): 3.71
- pKd (SNTB1, Q13884; [1]): below the threshold
- pKd (HTRA3, P83110; [1]): below the threshold
- pKd (Inadl_5, Q8NI35; [1]): below the threshold
- pKd (Inadl_3, Q8NI35; [1]): below the threshold
- pKd (MPP6, Q9NZW5; [1]): below the threshold
- pKd (IL16_4, Q14005; [1]): 3.6

Binder: SKKNELFSNL [NHERF1, O14745]
- pKd (HTRA4, P83105; [2]): below the threshold
- pKd (LNX1_3, Q8TBB1; [2]): below the threshold
- pKd (PDZRN3_1, Q9UPQ7; [2]): below the threshold
- pKd (HTRA1, Q92743; [2]): below the threshold
- pKd (RADIL, Q96JH8; [2]): below the threshold
- pKd (MPDZ_12, O75970; [2]): below the threshold
- pKd (SNTG1, Q9NSN8; [2]): below the threshold
- pKd (IL16_3, Q14005; [2]): below the threshold
- pKd (LIMK2, P53671; [2]): below the threshold
- pKd (FRMPD2_2, Q68DX3; [2]): below the threshold
- pKd (PARD3_3, Q8TEW0; [2]): below the threshold
- pKd (PCLO, Q9Y6V0; [2]): below the threshold
- pKd (GORASP1, Q9BQQ3; [2]): below the threshold
- pKd (FRMPD4, Q14CM0; [2]): below the threshold
- pKd (FRMPD2_1, Q68DX3; [2]): below the threshold
- pKd (NHERF4_1, Q86UT5-2; [2]): below the threshold
- pKd (DLG5_1, Q8TDM6; [2]): below the threshold
- pKd (GRASP, Q7Z6J2; [2]): below the threshold
- pKd (GRIP1_7, Q9Y3R0; [2]): below the threshold
- pKd (LNX2_2, Q8N448; [2]): below the threshold
- pKd (SNTB1, Q13884; [2]): below the threshold
- pKd (HTRA3, P83110; [2]): below the threshold
- pKd (Inadl_5, Q8NI35; [2]): below the threshold
- pKd (Inadl_3, Q8NI35; [2]): below the threshold
- pKd (MPP6, Q9NZW5; [2]): below the threshold
- pKd (IL16_4, Q14005; [2]): below the threshold
